Measured values: patent US20260028391A1 (HUMABS BIOMED, published 2026)

Assays:
[1] = biological target: T1, RSV F B K68N-N208S (RSV B); experiment: FACS, % binding to RSV F B variants
T1 construct: whole, on cells

[2] = biological target: T2, RSV F B S443P (RSV B); experiment: FACS, % binding to RSV F B variants
T2 construct: whole, on cells; also called mutant S443P

[3] = biological target: T3, RSV F B N201S (RSV B); experiment: FACS, % binding to RSV F B variants
T3 construct: whole, on cells

[4] = biological target: T4, RSV F B N208S (RSV B); experiment: FACS, % binding to RSV F B variants
T4 construct: whole, on cells; also called mutant N208S

[5] = biological target: T5, RSV F B, B Ref (RSV B); experiment: FACS, % binding to RSV F B variants
T5 construct: whole, on cells

[6] = biological target: T6, RSV F B N208D (RSV B); experiment: FACS, % binding to RSV F B variants
T6 construct: whole, on cells

[7] = biological target: T7, RSV F B K68N-N201S (RSV B); experiment: FACS, % binding to RSV F B variants
T7 construct: whole, on cells

[8] = biological target: RSV-B B18537/62 F protein (RSV B, strain B18537/62, UniProt P13843 26-574); experiment: cell-based or functional assay
[9] = biological target: RSV-long strain fusion glycoprotein (F) (RSV, long strain, UniProt P12568 26-574); experiment: cell-based or functional assay
[10] = biological target: RSV-B B9320 F protein (RSV B, strain B9320); experiment: cell-based or functional assay
[11] = biological target: RSV A fusion glycoprotein (F), virus of the neutralisation assays of Tables 54 and 57 (RSV A); experiment: cell-based or functional assay
[12] = biological target: T8, RSV F expressed on transfected Expi293F cells (respiratory syncytial virus (RSV)); experiment: flow cytometry, transfected Expi293F cells, fixed and permeabilised
[13] = biological target: T9, biot-RSV-F wt (respiratory syncytial virus (RSV)); experiment: BLI, SA sensor loaded with biot-RSV-F wt, mAb 5 ug/ml, 4 min association, 6 min dissociation
[14] = biological target: T9, biot-RSV-F wt; experiment: BLI (Octet), biotinylated F on SA sensors, mAb 5 µg/ml
[15] = biological target: fusion glycoprotein (F) of MPV A GFP (Tables 41 and 43) (metapneumovirus A); experiment: cell-based or functional assay
[16] = biological target: fusion glycoprotein (F) of RSV B GFP (Tables 41 and 42) (respiratory syncytial virus B); experiment: cell-based or functional assay
[17] = biological target: fusion glycoprotein (F) of RSV A GFP (Tables 41 and 42) (respiratory syncytial virus A); experiment: cell-based or functional assay
[18] = biological target: RSV A1997/12-35 fusion glycoprotein (F) (RSV A, strain A1997/12-35); experiment: cell-based or functional assay
[19] = biological target: RSV A2 (screening GFP strain) fusion glycoprotein (F) (RSV A); experiment: cell-based or functional assay
[20] = biological target: RSV A1998/3-2 fusion glycoprotein (F) (RSV A, strain A1998/3-2); experiment: cell-based or functional assay
[21] = biological target: RSV A2 VR 1540 fusion glycoprotein (F) (RSV A, strain A2 (VR 1540), UniProt P03420 26-574); experiment: cell-based or functional assay
[22] = biological target: RSV Ds Red 5 fusion glycoprotein (F) (RSV, strain printed as Ds Red 5); experiment: cell-based or functional assay
[23] = biological target: RSV A 2000/3-4 fusion glycoprotein (F) (RSV A, strain A 2000/3-4); experiment: cell-based or functional assay
[24] = biological target: RSV A 2001/3-12 fusion glycoprotein (F) (RSV A, strain A 2001/3-12); experiment: cell-based or functional assay
[25] = biological target: RSV B (screening GFP strain) fusion glycoprotein (F) (RSV B); experiment: cell-based or functional assay
[26] = biological target: T10, RSV-B F (RSV B); experiment: affinity; method not given
T10 construct: also called RSV F B

[27] = biological target: T11, RSV-A F (RSV A); experiment: affinity; method not given
T11 construct: also called RSV F A

[28] = biological target: post-fusion RSV F protein (respiratory syncytial virus (RSV), …); experiment: ELISA-type titration, OD 405 nm, on Post-F
[29] = biological target: T12, RSV fusion glycoprotein (RSV-F), pre-fusion conformation, recombinant protein loaded on sensors (respiratory syncytial virus (RSV), …); experiment: ELISA-type titration, OD 405 nm, on Pre-F
T12 construct: also called RSV-F wt; RSV-F protein

[30] = biological target: DS-Cav1 RSV F (respiratory syncytial virus (RSV); …, UniProt P13843 26-513); experiment: ELISA on RSV-F Ds-Cav1, 1 ug/ml
[31] = biological target: RSV A2 BPR-344-00 (BEI NR-12149) fusion glycoprotein (F) (RSV A, strain A2, UniProt P03420 26-574); experiment: cell-based or functional assay
[32] = biological target: RSV B1 BPR-348-00 (BEI NR-4052) fusion glycoprotein (F) (RSV B, strain B1, UniProt O36634 26-574); experiment: cell-based or functional assay
[33] = biological target: RSV B 9719/09 fusion glycoprotein (F) (RSV B, strain 9719/09); experiment: cell-based or functional assay
[34] = biological target: RSV A Randall fusion glycoprotein (F) (RSV A, strain Randall); experiment: cell-based or functional assay
[35] = biological target: T9, biot-RSV-F wt; experiment: BLI, SA sensor loaded with biot-RSV-F wt, mAb 5 ug/ml, 4 min association, 6 min dissociation; remark: listed apart in the source
[36] = biological target: T8, RSV F expressed on transfected Expi293F …; experiment: flow cytometry, transfected Expi293F cells, fixed and permeabilised; remark: listed apart in the source

B1: MPK190-v1.3-rIgG1m17,1-LS (antibody, V domains shown)
VH: QVQLVESGGGLVKPGGSLTLSCAASGFSISGYGMNWVRQAPGRGLEWVASISASSTYIYYADSMKGRFTISRDNGKTSLYLQMKSLRAEDTAVYYCARAPIEPPYFDLWGRGTLVTVSS
VL: QSVLTQPPSVSGAPGQRVTISCTGSSSNIGAGYDVHWYQHLPGKAPKVLIYGNTNRPSVVPDRFSGSNSGASASLAISGLQAEDEADYFCQSYDRRLSGPIFGGGTKLTVLG
[1]
  % binding: 61.5%
[2]
  % binding: 66.7%
[3]
  % binding: 63.1%
[4]
  % binding: 63.4%
[5]
  % binding: 72.1%
[6]
  % binding: 60.5%
[7]
  % binding: 63.3%
[8]
  EC50, virus neutralization (Fab testing): 0.0247 nM
[9]
  EC50, virus neutralization (Fab testing): 0.105 nM
[10]
  EC50, virus neutralization (Fab testing): 0.017 nM
[11]
  IC50, neutralization of RSVA: 15.3 ng/mL

B2: MPK190-v1.3-rIgG1m17,1-LS (antibody, V domains shown)
VH: QVQLVESGGGLVKPGGSLTLSCAASGFSISGYGMNWVRQAPGRGLEWVASISASSTYIYYADSMKGRFTISRDNGKTSLYLQMKSLRAEDTAVYYCARAPIEPPYFDLWGRGTLVTVSS
VL: QSVLTQPPSVSGAPGQRVTISCTGSSSNIGAGYDVHWYQHLPGKAPKVLIYGNTNRPSVVPDRFSGSNSGASASLAISGLQAEDEADYFCQSYDRRLSGPIFGGGTKLTVLG
notes: also called MPK190-v1.3-rIgG1-LS
[12]
  Binding (FACS) relative to parental mAb MPK190-v1.1: 0.9
[13]
  Kd: < 0.001 nM
[14]
  Kd: < 0.001 nM
[15]
  IC50 (ng/ml), MPV A GFP neutralization: 5.99 ng/mL
[16]
  IC50 (ng/ml), RSV B GFP neutralization: 2.38 ng/mL
[17]
  IC50 (ng/ml), RSV A GFP neutralization: 3.18 ng/mL

B3: MPK176-rIgG1-LS (antibody, V domains shown)
VH: QVQLVQSGAEVKKPGASVRVSCKASGYTLTAYGISWVRQAPGQGLEWMGWISPKHGNTHYAQRFQGRVTMTTDTSTSTAYMELRSLRPDDTAVYFCAREGVDIMAVPWYFDYWGQGTLVAVSS
VL: SYELTQPPSVSVAPGQTARISCGGNNIGSKSVHWYQQKPGQAPVVVVYDDSDRPSGIPERFSGSNSGNTATLTISGVEAGDEADYFCQVWDSATDHWVFGGGTKLTVL
notes: Recombinant human IgG1 with M428L/N434S (LS)
[18]
  IC50, virus neutralization: 2.08 ng/mL
[19]
  IC50, virus neutralization: 4.15 ng/mL
[20]
  IC50, virus neutralization: 2.45 ng/mL
[21]
  IC50, virus neutralization: 2.87 ng/mL
[22]
  IC50, virus neutralization: 1.06 ng/mL
[23]
  IC50, virus neutralization: 2.3 ng/mL
[24]
  IC50, virus neutralization: 2.12 ng/mL
[25]
  IC50, virus neutralization: 2.19 ng/mL
[26]
  Kd: 0.001 nM
[27]
  Kd: 0.0591 nM

B4: MPH12 (antibody, V domains shown)
VH: QVQLVESGGGLVKPGGSLRLSCVASGFTFSGFYMKWIRQAPGKGLEWVSSISASGSYTNYADSVEGRFTVSRDNAKNSLFLLMSSLRAEDTAVYYCARGDSYCGASACHGEFFHKWGQGTLVTVSS
VL: QSVLTQPPSVSGAPGQRVTISCTGSDSNIGADFDVHWYQQLPGTAPKLLIYGNINRPSGVPDRFSGSRSGTSAFLAITRLQAEDEADYYCQSYDRSLHYVFGAGTKVTVL
notes: also called MPH12-rIgG1; MPH12-rIgG1-LS
[28]
  EC50 (read off the curve): ~30 ng/mL
[29]
  EC50 (read off the curve): ~10 ng/mL
[30]
  EC50 (read off the curve): ~2 ng/mL

B5: MPK65-v2-rIgG1-LS (antibody, V domains shown)
VH: QVPLVQSGAEVKKPGESLKISCKGSGYSFINYWIGWVRQMPGKGLEWMGVIYPFDSDTKYSPSFQGHVTISADKSSNTAYVQWSSLKASDTAMYYCARFTFGIAVVTDDVSGEGQAFEIWGQGTMVTVSS
VL: EIVMMQSPATLSVSPGERATLSCRASQSVAGNLAWYQQRPGQAPRLLIYGASTRATGVPARFSGSGSETEFTLTISSLQSEDFAVYYCHQYSNWPQAFGQGTRLDIK
notes: as for B3
[31]
  IC50, virus neutralization: 0.5 ng/mL
[32]
  IC50, virus neutralization: 0.4 ng/mL
[33]
  IC50, virus neutralization: 0.741 ng/mL
[34]
  IC50, virus neutralization: 1.7 ng/mL
[18]
  IC50, virus neutralization: 0.56 ng/mL
[19]
  IC50, virus neutralization: 0.955 ng/mL
[20]
  IC50, virus neutralization: 0.17 ng/mL
[21]
  IC50, virus neutralization: 0.95 ng/mL
[22]
  IC50, virus neutralization: 0.47 ng/mL
[23]
  IC50, virus neutralization: 0.74 ng/mL
[24]
  IC50, virus neutralization: 0.59 ng/mL
[25]
  IC50, virus neutralization: 0.607 ng/mL
[26]
  Kd: 0.404 nM

B6: MPK201-rIgG1-LS (antibody, V domains shown)
VH: EVQLVQSGAEVKKPGESLKISCQGSGYSFINYWIGWVRQKPGKGLEWMGIIYPFDSETKYSPSFQGHVTFSADKSINTAYVQWSSLRASDTAMYYCARFTFGLAVTTADVSGEGQAFEIWGQGTMVTVSS
VL: EIVMMQSPATLSVSPGERATLSCRASQSVAGNLAWYQQRPGQAPRLLVYGASTRASGVPARFSGSGSETEFTLTISSLQSEDFAVYYCHHYSDWPQAFGQGTRLDIK
notes: as for B3
[18]
  IC50, virus neutralization: 2.33 ng/mL
[19]
  IC50, virus neutralization: 2.83 ng/mL
[20]
  IC50, virus neutralization: 3.01 ng/mL
[21]
  IC50, virus neutralization: 1.53 ng/mL
[22]
  IC50, virus neutralization: 1.23 ng/mL
[23]
  IC50, virus neutralization: 1.26 ng/mL
[24]
  IC50, virus neutralization: 1.77 ng/mL
[25]
  IC50, virus neutralization: 1.49 ng/mL
[26]
  Kd: 0.001 nM
[27]
  Kd: 0.001 nM

B7: MPK104-v1.3-rIgG1m17,1-LS (antibody, V domains shown)
VH: QVQLVESGGGLVKPGGSLRLSCAASGFTIDGYGMNWVRQAPGKGLEWVSSISASSNYIYYADSMKGRFTISRDNGKNSLYLQMHSLRVEDTGVYYCARAPLEPPYFDLWGRGTLVTVSS
VL: QSVLTQPPSVSGAPGQRVTISCSGGSSNIGAGYDVHWYQQVPGKGPKVLIYGNTNRPSGVPDRFSGSNFGASASLAITGLQAEDEADYFCQSYDRRLGGPVFGGGTKLTVL
notes: also called MPK104-v1.3-rIgG1-LS
[14]
  Kd: 0.209 nM
[35]
  Kd: 0.0924 nM
[15]
  IC50 (ng/ml), MPV A GFP neutralization: 5.57 ng/mL
[16]
  IC50 (ng/ml), RSV B GFP neutralization: 6.49 ng/mL
[17]
  IC50 (ng/ml), RSV A GFP neutralization: 2.71 ng/mL
[36]
  Binding (FACS) relative to parental mAb MPK104-v1.1: 1.1

B8: MPK104-v1.1-rIgG1m17,1-LS (antibody, V domains shown)
VH: QVQLVESGGGLVKPGGSLRLSCAASGFTIDGYGMNWVRQAPGKGLEWVSSISASSNYIYYADSMKGRFTISRDNGKNSLYLQMHSLRVEDTGVYYCARAPLEPPYFDLWGRGTLVTVSS
VL: QSVLTQPPSVSGAPGQRVTISCSGGSSNIGAGYDVHWYQQVPGKGPKVLIYGNNNRPSGVPDRFSGSNFGASASLAITGLQADDEADYFCQSYDRRLGGPVFGGGTKLTVL
notes: called the parental mAb (v1.1)
[35]
  Kd: 0.0649 nM
[36]
  Binding (FACS) relative to parental mAb MPK104-v1.1: 1
